Assay results: patent publication US20040071656A1, “Modulation of heat-shock-protein-based immunotherapies” (priority 2001, published 2004)
No end group written: not given here. *: point of attachment. Biotin = O=C1N[C@H]2[C@H](CS[C@H]2CCCCC(=O)*)N1

Molecular target: Recombinant human His6-tagged Hsp70 (human), P0DMV8
Test: ELISA with streptavidin-peroxidase after gel filtration of Hsp70 loaded with biotinylated peptide C (ADP)

Recombinant human His6-tagged Hsp70 (human), P0DMV8, sequence (P0DMV8 2-641): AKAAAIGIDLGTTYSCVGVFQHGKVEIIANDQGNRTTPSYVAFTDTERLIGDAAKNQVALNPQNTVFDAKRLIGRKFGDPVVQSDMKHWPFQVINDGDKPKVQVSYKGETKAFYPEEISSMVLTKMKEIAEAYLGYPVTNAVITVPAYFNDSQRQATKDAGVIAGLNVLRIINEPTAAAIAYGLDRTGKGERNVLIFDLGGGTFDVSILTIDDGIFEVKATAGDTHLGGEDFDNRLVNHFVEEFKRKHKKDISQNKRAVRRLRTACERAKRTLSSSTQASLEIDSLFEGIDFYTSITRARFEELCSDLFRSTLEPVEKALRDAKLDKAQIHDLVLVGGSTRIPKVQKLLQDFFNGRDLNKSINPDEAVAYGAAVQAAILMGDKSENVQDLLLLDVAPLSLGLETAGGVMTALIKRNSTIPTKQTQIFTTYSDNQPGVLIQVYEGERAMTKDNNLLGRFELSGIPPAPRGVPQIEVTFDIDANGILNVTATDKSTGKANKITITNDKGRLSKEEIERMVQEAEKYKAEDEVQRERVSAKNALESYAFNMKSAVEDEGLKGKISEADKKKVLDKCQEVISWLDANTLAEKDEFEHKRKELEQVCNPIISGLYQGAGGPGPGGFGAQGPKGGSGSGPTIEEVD

yield of Hsp70 complex formation: 20 to 30%
Binder: Biotin-GCEVFGLGWRSYKH [Biotinylated peptide C (biotin-…)]
